Data on two molecules can be found in PMC11429998 (bioRxiv, 2024).

Data set [1] has as its target PseCAST Cas7 (Pseudoalteromonas). In words: cryo-EM structure.
The data set “cryo-EM structure” concerns the molecule itself. Nature of the data set: cryo-EM structure.

PseCAST Cas7 (natural protein) had a stoichiometry N in data set [1] of 6.

B1: PseCAST TniQ (natural protein)
chain: MAFLFSPKIGPFFDESLESYLLRVVSENFFDSYEGLSLAIREELHELDFEAHGAFPIDLKRLNVYHAKHNSHFRMRALGLLETLLDLPRYELQKLALLKSDIKFNSSAALYKGGVDIPQRFICYHTEEAVDSIPVCPQCLAEEAYIKQSWHIKWVNACAKHQCTLVHKCPECCAPINYIENESITHCSCGFELSCGSTSPVNTLSIDHLNKLLNKSELDDNNPLFKNTTLTERFAALLWYQERYSKEETFCLDDVVNYFNGWPVVFYKELDELSKNAAMKLIDLFNKTEFKFIFGNAILSCPNTQKQREPHFIYSTLLDYLATLVESNPKTKKPNVADLLVSVLEAATLLSISIEQVYRLYQDGILQTAFRHKMNQRINPYKGVFFLRHVIEYKTSFGNDKARMYLSAW
As for B1, in “cryo-EM structure”, the “stoichiometry N” value came out at 2.
